Experimental data taken from paper PMC7802366 (The Journal of Cell Biology, 2021).
One block for each binder: values may come before it.

Experiments:
[1] = target: p150^GLUED subunit of dynactin, endogenous (human (endogenous in HEK-293), UniProt Q14203-1 1-1278); test: pull-down
[2] = target: dynein heavy chain (DHC), native (human (endogenous in HEK-293), UniProt Q14204 1-4646); test: pull-down

Sequence of p150^GLUED subunit of dynactin, endogenous (Q14203 whole entry): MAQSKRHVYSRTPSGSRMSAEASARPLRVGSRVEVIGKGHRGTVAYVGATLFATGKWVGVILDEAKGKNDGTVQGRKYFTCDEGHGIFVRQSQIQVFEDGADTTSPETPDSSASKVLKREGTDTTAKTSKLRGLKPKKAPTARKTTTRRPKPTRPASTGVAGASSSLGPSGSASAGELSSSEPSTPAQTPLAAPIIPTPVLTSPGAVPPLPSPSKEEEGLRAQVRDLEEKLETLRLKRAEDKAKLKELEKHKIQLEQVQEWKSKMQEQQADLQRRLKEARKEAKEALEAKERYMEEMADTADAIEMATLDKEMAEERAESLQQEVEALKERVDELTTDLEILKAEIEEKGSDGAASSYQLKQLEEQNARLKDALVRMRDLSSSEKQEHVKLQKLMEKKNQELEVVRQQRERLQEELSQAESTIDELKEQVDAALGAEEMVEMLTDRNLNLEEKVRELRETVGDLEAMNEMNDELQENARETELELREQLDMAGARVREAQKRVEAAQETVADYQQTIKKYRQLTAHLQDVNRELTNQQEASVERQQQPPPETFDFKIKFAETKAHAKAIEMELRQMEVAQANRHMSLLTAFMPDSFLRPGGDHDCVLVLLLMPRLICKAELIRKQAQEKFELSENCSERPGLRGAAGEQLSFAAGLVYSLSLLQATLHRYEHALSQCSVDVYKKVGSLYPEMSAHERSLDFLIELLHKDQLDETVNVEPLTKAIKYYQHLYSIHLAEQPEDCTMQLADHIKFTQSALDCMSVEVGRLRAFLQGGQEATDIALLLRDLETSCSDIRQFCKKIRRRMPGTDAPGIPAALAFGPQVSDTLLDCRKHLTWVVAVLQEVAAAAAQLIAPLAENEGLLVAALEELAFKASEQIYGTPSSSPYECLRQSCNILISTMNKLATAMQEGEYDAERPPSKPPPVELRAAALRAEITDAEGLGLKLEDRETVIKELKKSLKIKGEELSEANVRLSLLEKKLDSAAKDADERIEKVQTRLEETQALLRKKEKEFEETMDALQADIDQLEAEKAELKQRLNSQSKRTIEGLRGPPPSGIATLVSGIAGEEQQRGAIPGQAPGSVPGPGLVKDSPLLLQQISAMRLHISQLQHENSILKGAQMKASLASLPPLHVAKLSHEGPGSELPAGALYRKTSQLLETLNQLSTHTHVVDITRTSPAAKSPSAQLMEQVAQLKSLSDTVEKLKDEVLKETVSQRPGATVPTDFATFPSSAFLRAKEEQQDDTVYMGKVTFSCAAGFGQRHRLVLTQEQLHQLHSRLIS

binding result [1]: binds
B1: His-SEPT9 NTE domain (aa 1–283) (domain or fragment, human, UniProt Q9UHD8-1 1-283, looked up)
chain: MKKSYSGGTRTSSGRLRRLGDSSGPALKRSFEVEEVETPNSTPPRRVQTPLLRATVASSTQKFQDLGVKNSEPSARHVDSLSQRSPKASLRRVELSGPKAAEPVSRRTELSIDISSKQVENAGAIGPSRFGLKRAEVLGHKTPEPAPRRTEITIVKPQESAHRRMEPPASKVPEVPTAPATDAAPKRVEIQMPKPAEAPTAPSPAQTLENSEPAPVSQLQSRLEPKPQPPVAEATPRSQEATEAAPSCVGDMADTPRDAGLKQAPASRNEKAPVDFGYVGIDS

binding result [1]: binds
binding result [2]: binds
B2: His-SEPT9 G domain (aa 283–586) (domain or fragment, human, UniProt Q9UHD8-1 283-586, looked up)
chain: SILEQMRRKAMKQGFEFNIMVVGQSGLGKSTLINTLFKSKISRKSVQPTSEERIPKTIEIKSITHDIEEKGVRMKLTVIDTPGFGDHINNENCWQPIMKFINDQYEKYLQEEVNINRKKRIPDTRVHCCLYFIPATGHSLRPLDIEFMKRLSKVVNIVPVIAKADTLTLEERVHFKQRITADLLSNGIDVYPQKEFDEDSEDRLVNEKFREMIPFAVVGSDHEYQVNGKRILGRKTKWGTIEVENTTHCEFAYLRDLLIRTHMQNIKDITSSIHFEAYRVKRLNEGSSAMANGMEEKEPEAPEM

binding result [1]: binds
binding result [2]: binds
B3: His-SEPT9 (recombinant full-length SEPT9 isoform 1) (natural protein, human, UniProt Q9UHD8-1 1-586, looked up)
chain: MKKSYSGGTRTSSGRLRRLGDSSGPALKRSFEVEEVETPNSTPPRRVQTPLLRATVASSTQKFQDLGVKNSEPSARHVDSLSQRSPKASLRRVELSGPKAAEPVSRRTELSIDISSKQVENAGAIGPSRFGLKRAEVLGHKTPEPAPRRTEITIVKPQESAHRRMEPPASKVPEVPTAPATDAAPKRVEIQMPKPAEAPTAPSPAQTLENSEPAPVSQLQSRLEPKPQPPVAEATPRSQEATEAAPSCVGDMADTPRDAGLKQAPASRNEKAPVDFGYVGIDSILEQMRRKAMKQGFEFNIMVVGQSGLGKSTLINTLFKSKISRKSVQPTSEERIPKTIEIKSITHDIEEKGVRMKLTVIDTPGFGDHINNENCWQPIMKFINDQYEKYLQEEVNINRKKRIPDTRVHCCLYFIPATGHSLRPLDIEFMKRLSKVVNIVPVIAKADTLTLEERVHFKQRITADLLSNGIDVYPQKEFDEDSEDRLVNEKFREMIPFAVVGSDHEYQVNGKRILGRKTKWGTIEVENTTHCEFAYLRDLLIRTHMQNIKDITSSIHFEAYRVKRLNEGSSAMANGMEEKEPEAPEM
